Assay results taken from US20210179689A1 (SHATTUCK LABS, published 2021).

Key:
human CD40 [1] = biological target: T1, human CD40 (human, UniProt P25942 21-193); assay: Octet biolayer interferometry; Loading Sample ID hCD40-his; Full R^2 0.9682
T1 construct: also called hCD40

murine CD40 [2] = biological target: T2, murine CD40 (murine, UniProt P27512 20-193, limits assumed); assay: Octet biolayer interferometry; Loading Sample ID mCD40-his; Full R^2 0.7077
T2 construct: also called mCD40
T2 sequence (looked up): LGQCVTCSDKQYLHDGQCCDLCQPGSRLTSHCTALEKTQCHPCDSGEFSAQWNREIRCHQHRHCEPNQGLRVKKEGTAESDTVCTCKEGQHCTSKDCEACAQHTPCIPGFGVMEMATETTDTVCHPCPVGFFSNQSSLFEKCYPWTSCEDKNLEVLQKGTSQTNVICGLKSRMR

human CD40 [3] = biological target: T1, human CD40; assay: Octet biolayer interferometry; Loading Sample ID hCD40-his; kdis(1/s); Full R^2 0.9682
murine CD40 [4] = biological target: T2, murine CD40; assay: Octet biolayer interferometry; Loading Sample ID mCD40-his; kdis(1/s); Full R^2 0.7077
[5] = biological target: recombinant mouse CD40-Fc protein (mouse) (UniProt P27512); assay: ELISA: coat mCD40-Fc, detection anti-mCD40L and an HRP conjugate
human galectin-9 (human) [6] = biological target: human galectin-9 (human) (UniProt O00182); assay: Octet biolayer interferometry; Loading Sample ID hGal9; Full R^2 0.9934
human galectin-9 (human), sequence (O00182 other isoform, or with tags, fused parts or gaps limits assumed): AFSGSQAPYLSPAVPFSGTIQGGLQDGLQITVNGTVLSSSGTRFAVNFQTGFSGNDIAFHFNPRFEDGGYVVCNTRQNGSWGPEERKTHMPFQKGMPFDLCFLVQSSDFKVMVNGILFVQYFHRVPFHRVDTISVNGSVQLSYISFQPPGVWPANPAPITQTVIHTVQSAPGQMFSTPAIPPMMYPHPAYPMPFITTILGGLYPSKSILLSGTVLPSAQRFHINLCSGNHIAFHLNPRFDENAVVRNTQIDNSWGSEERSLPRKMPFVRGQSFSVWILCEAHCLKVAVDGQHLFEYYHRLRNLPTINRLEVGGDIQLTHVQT

mIgG Fc gamma [7] = assay: sandwich ELISA: coat mIgG Fc gamma, detection goat anti-mouse Fc (H+L) HRP
human CD40 [8] = biological target: T1, human CD40; assay: Octet biolayer interferometry; Loading Sample ID hCD40-his; Full R^2 0.3080
human CD40 [9] = biological target: T1, human CD40; assay: Octet biolayer interferometry; Loading Sample ID hCD40-his; Full R^2 0.9393
human CD40 [10] = biological target: T1, human CD40; assay: Octet biolayer interferometry; Loading Sample ID hCD40-his; Full R^2 0.9810
murine CD40 [11] = biological target: T2, murine CD40; assay: Octet biolayer interferometry; Loading Sample ID mCD40-his; Full R^2 0.7890
murine CD40 [12] = biological target: T2, murine CD40; assay: Octet biolayer interferometry; Loading Sample ID mCD40-his; Full R^2 0.9955
[13] = biological target: murine galectin-9 (murine) (UniProt O08573); assay: Octet biolayer interferometry; Loading Sample ID mGal9; Full R^2 0.9866
murine galectin-9 (murine), sequence (O08573 other isoform, or with tags, fused parts or gaps limits assumed): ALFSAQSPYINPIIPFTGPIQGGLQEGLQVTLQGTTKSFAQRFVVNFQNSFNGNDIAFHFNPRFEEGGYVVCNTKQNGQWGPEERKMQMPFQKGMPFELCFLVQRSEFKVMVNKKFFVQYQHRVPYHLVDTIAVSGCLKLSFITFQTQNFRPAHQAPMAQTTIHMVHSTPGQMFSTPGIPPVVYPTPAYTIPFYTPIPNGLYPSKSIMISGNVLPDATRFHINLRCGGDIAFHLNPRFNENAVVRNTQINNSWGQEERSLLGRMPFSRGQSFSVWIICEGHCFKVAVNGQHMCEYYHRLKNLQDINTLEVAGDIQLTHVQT

[14] = biological target: murine galectin-9 (murine) (UniProt O08573); assay: Octet biolayer interferometry; Loading Sample ID mGal9; Full R^2 0.9973
human galectin-9 (human) [15] = biological target: human galectin-9 (human) (UniProt O00182); assay: Octet biolayer interferometry; Loading Sample ID hGal9; kdis(1/s); Full R^2 0.9934
human CD40 [16] = biological target: T1, human CD40; assay: Octet biolayer interferometry; Loading Sample ID hCD40-his; kdis(1/s); Full R^2 0.3080
human CD40 [17] = biological target: T1, human CD40; assay: Octet biolayer interferometry; Loading Sample ID hCD40-his; kdis(1/s); Full R^2 0.9393
human CD40 [18] = biological target: T1, human CD40; assay: Octet biolayer interferometry; Loading Sample ID hCD40-his; kdis(1/s); Full R^2 0.9810
murine CD40 [19] = biological target: T2, murine CD40; assay: Octet biolayer interferometry; Loading Sample ID mCD40-his; kdis(1/s); Full R^2 0.7890
murine CD40 [20] = biological target: T2, murine CD40; assay: Octet biolayer interferometry; Loading Sample ID mCD40-his; kdis(1/s); Full R^2 0.9955
[21] = biological target: murine galectin-9 (murine) (UniProt O08573); assay: Octet biolayer interferometry; Loading Sample ID mGal9; kdis(1/s); Full R^2 0.9866
[22] = biological target: murine galectin-9 (murine) (UniProt O08573); assay: Octet biolayer interferometry; Loading Sample ID mGal9; kdis(1/s); Full R^2 0.9973
mIgG Fc gamma [23] = assay: sandwich ELISA: coat mIgG Fc gamma, detection goat anti-mouse Fc (H+L) HRP; standard: mouse whole IgG
human CD40 [24] = biological target: T1, human CD40; assay: Octet biolayer interferometry; Loading Sample ID hCD40-his; Full R^2 0.5111
murine CD40 [25] = biological target: T2, murine CD40; assay: Octet biolayer interferometry; Loading Sample ID mCD40-his; Full R^2 0.9077
human CD40 [26] = biological target: T1, human CD40; assay: Octet biolayer interferometry; Loading Sample ID hCD40-his; kdis(1/s); Full R^2 0.5111
murine CD40 [27] = biological target: T2, murine CD40; assay: Octet biolayer interferometry; Loading Sample ID mCD40-his; kdis(1/s); Full R^2 0.9077
murine CD40 [28] = biological target: T2, murine CD40; assay: Octet biolayer interferometry; Loading Sample ID mCD40-his; KD and kdis cells blank; Full R^2 0.6015

T1 sequence (P25942 21-193 limits assumed): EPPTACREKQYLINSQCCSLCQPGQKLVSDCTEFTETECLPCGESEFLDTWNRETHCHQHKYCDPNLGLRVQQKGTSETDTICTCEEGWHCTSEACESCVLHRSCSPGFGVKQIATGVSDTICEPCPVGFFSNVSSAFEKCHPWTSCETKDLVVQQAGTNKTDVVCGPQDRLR

hCD40L-Fc (Fc fusion)
Kd (human CD40 [1]): 6.18 nM | kon (human CD40 [1]): 120000 M⁻¹ s⁻¹ | Kd (murine CD40 [2]): 10.6 nM | kon (murine CD40 [2]): 229000 M⁻¹ s⁻¹ | koff (human CD40 [3]): 0.000734 s⁻¹ | koff (murine CD40 [4]): 0.00241 s⁻¹

mTIM-3-Fc-CD40L chimeric protein (from UniProt Q8VIM0 20-193; P27548 47-260) (Fc fusion)
EC50 (read off the curve) [5]: 10 nM | Kd (human galectin-9 (human) [6]): 69 nM | EC50 (read off the curve) (mIgG Fc gamma [7]): 4 nM | Kd (human CD40 [8]): 9.37 nM | Kd (human CD40 [9]): 9.46 nM | kon (human CD40 [9]): 59400 M⁻¹ s⁻¹ | Kd (human CD40 [10]): 3 nM | kon (human CD40 [10]): 30600 M⁻¹ s⁻¹ | Kd (murine CD40 [11]): 29.9 nM | kon (murine CD40 [11]): 79200 M⁻¹ s⁻¹ | Kd (murine CD40 [12]): 8.92 nM | kon (murine CD40 [12]): 33700 M⁻¹ s⁻¹ | Kd [13]: 7.07 nM | kon [13]: 114000 M⁻¹ s⁻¹ | Kd [14]: 16.7 nM | kon [14]: 58500 M⁻¹ s⁻¹ | koff (human galectin-9 (human) [15]): 0.00108 s⁻¹ | koff (human CD40 [16]): 0.00103 s⁻¹ | koff (human CD40 [17]): 0.000733 s⁻¹ | koff (human CD40 [18]): 0.000103 s⁻¹ | koff (murine CD40 [19]): 0.00286 s⁻¹ | koff (murine CD40 [20]): 0.000295 s⁻¹ | koff [21]: 0.000803 s⁻¹ | koff [22]: 0.00098 s⁻¹

mouse IgG (antibody)
EC50 (read off the curve) (mIgG Fc gamma [23]): 2 nM

B1: mCD40L-Fc fusion protein (Fc fusion, murine, UniProt P27548 112-260, looked up)
chain: MQRGDEDPQIAAHVVSEANSNAASVLQWAKKGYYTMKSNLVMLENGKQLTVKREGLYYVYTQVTFCSNREPSSQRPFIVGLWLKPSSGSERILLKAANTHSSSQLCEQQSVHLGGVFELQAGASVFVNVTEASQVIHRVGFSSFGLLKL
notes: also called recombinant mCD40L-Fc protein; not shown: Fc part
Kd (human CD40 [24]): 4.8 nM | kon (human CD40 [24]): 220000 M⁻¹ s⁻¹ | Kd (murine CD40 [25]): 14.1 nM | kon (murine CD40 [25]): 81500 M⁻¹ s⁻¹ | koff (human CD40 [26]): 0.00115 s⁻¹ | koff (murine CD40 [27]): 0.00114 s⁻¹ | kon (murine CD40 [28]): 118000 M⁻¹ s⁻¹
